Substitutions are numbered along the chain they refer to.

The values below come from US20240018252A1 (Pfizer, published 2024).

One test deals with T1, human CD3 (huCD3ed) (human, UniProt P07766 23-126; P04234 22-105).
T1 construct: Soluble analyte in SPR; The delta chain is inferred from the label 'ed'; also called hCD3ed; hCD3
Nature of the test: Biacore SPR, antibody as ligand, hCD3ed; steady state affinity only, rough estimate (antibody heterogeneous).

The target in a further test is T2, human BCMA (human, UniProt Q02223 1-54).
T2 construct: soluble analyte in SPR; also called hBCMA; huBCMA
T2 sequence: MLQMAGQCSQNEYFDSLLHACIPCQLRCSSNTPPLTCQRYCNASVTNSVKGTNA
As to the kind of experiment: SPR, IgG immobilized, human BCMA analyte, 37 C. The method, then: All experiments were performed on a Bio-Rad Proteon XPR36 surface Plasmon resonance biosensor (Bio-Rad, Hercules, CA). […] The analysis temperature for the immobilization was 25° C. and the running buffer was HBS-T+(10 mM HEPES, 150 mM NaCl, 0.05% Tween-20, pH 7.4). Channels were activated in the analyte (horizontal) direction by injecting a mixture of 1 mM ECD and 0.25 mM NHS for 3 minutes at a flow rate of 30 μL/min. IgGs were immobilized on the activated spots by injecting them in the ligand (vertical) direction at […] in 10 mM Acetate pH 4.5 buffer for 1.5 minutes at […]. The activated surfaces were blocked by injecting 1M ethanolamine, pH 8.5 in the analyte direction for 3 minutes at […].
The analysis temperature for the hBCMA binding analysis was 37° C. or 25° C. in a running buffer of HBS-T+, supplemented with 1 mg/mL BSA. A kinetic titration method was employed for the interaction analysis as described in Abdiche, et al. The hBCMA (human BCMA) analyte was injected in the analyte direction using a series of injections from low to high concentration. The concentrations used were 0.08 nM, 0.4 nM, 2 nM, 10 nM and 50 nM (a 5-membered series, with a 5-fold dilution factor and top concentration of 50 nM). The association time for a given analyte dilution was two minutes. Immediately after the 50 nM hBCMA injection, dissociation was monitored for 2 hours.
The sensorgrams were double-referenced and fit to a 1:1 Langmuir with mass transport kinetic titration model in BIAevaluation Software version 4.1.1 (GE Lifesciences, Piscataway, NJ).

In test [1] the target is T3, human BCMA on BCMA-expressing tumor cells (human, UniProt Q02223 1-184).
T3 construct: endogenous BCMA of myeloma cell lines; also called BCMA on KMS12PE, MM1S (MM1.S), L363, KMS12BM cells
T3 sequence: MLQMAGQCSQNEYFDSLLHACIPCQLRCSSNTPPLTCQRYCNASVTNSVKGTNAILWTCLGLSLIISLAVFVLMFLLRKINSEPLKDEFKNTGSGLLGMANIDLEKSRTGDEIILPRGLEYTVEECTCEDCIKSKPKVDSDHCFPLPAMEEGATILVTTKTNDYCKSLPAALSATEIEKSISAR
Nature of the test: flow cytometry, 0.5 ug antibody on 250,000 KMS12BM (BCMA+) cells, Alexa Fluor 647 anti-mouse IgG. The method, then:
(§1) Binding of human anti-hBCMA expressed in mouse IgG2a were assessed on BCMA-expressing cells (KMS12BM, L363, MM1S and KMS12PE) by flow cytometry. 250,000 cells were incubated with 0.5 ug antibody in 100 uL binding buffer (PBS (Phosphate Buffered Saline)+0.2% BSA (Bovine Serum Albumin)), followed by incubation with Alex Fluor 647 conjugated anti-mouse IgG (Biolegend).
Background: Flow cytometry measures light scatter and fluorescence of single cells or particles in a stream.

The target of test [2] is T3, human BCMA on BCMA-expressing tumor …. Nature of the test: flow cytometry, 0.5 ug antibody on 250,000 KMS12PE (BCMA+++) cells, Alexa Fluor 647 anti-mouse IgG. How it is done: as §1
Test [3] shares this target. As to the kind of experiment: flow cytometry, 0.5 ug antibody on 250,000 L363 (BCMA+) cells, Alexa Fluor 647 anti-mouse IgG. The method, then:
as §1

Test [4] has the same target. Nature of the test: flow cytometry, 0.5 ug antibody on 250,000 MM1S (BCMA++) cells, Alexa Fluor 647 anti-mouse IgG. How it is done:
as §1

T1 sequence (P07766 23-126, chain 1 of 2): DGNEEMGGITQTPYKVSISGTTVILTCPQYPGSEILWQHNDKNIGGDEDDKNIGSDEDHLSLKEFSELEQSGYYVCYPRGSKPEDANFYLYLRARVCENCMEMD
T1 sequence (P04234 22-105, chain 2 of 2): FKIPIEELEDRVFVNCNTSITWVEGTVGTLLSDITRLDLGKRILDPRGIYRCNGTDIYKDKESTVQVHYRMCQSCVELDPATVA

B1: 7A3 (antibody, mouse IgG1, V domains shown)
VH: EVQLQQSGAELVRPGALVKLSCKGSGFNIKDYYIHWVKQRPEQGLEWIGWIDPENGNNKYDPKFQGKASITADTSSNIAYLQLSSLTSEDTAVYYCARNDNYAFDYWGQGTTVTVSS
VL: DIVVSQSPSSLAVSAGEKVIMSCKSSQSLLNSRTRKNYLAWYQLKPGQSPKLLIYSASTRESGVPDRFTGSGSGTDFTLTISSVQTEDLAVYYCMQSFTLRTFGGGTKLEIK
notes: Cloned from immunized mouse, expressed as mouse IgG1; also called anti-CD3 7A3
For the molecule B1, in the test with human CD3 (huCD3ed), the Kd (in general, the free concentration of one partner at which half of the binding sites on the other are occupied at equilibrium, for simple one-to-one binding) was 82.7 nM.

B2: 1A4 (antibody, mouse IgG1, V domains shown)
VH: QVQLQQSGPDLVKPGASVEISCKASGYSFTTYYLHWVRQRPGQGLEWIGWIFPGSDNTKYNEKFKGKATLTADTSSSTAYMQLSSLTSEDSAVYFCARNRDYYFDYWGQGTTVTVSS
VL: B1 VL with V4M, I20T, L44Q, S56W, E61A, T86A, V91I, M95K, T99I
notes: Cloned from immunized mouse, expressed as mouse IgG1; also called anti-CD3 1A4
B2: the Kd with human CD3 (huCD3ed) is 100 nM.

B3: COMBO_Rd4_0.6nM_C19 (antibody, V domains shown)
VH: EVQLLESGGGLVQPGGSLRLSCAASGFTFSSYPMSWVRQAPGKGLEWVSAIGGSGGSLPYADSVKGRFTISRDNSKNTLYLQMNSLRAEDTAVYYCARYWPMDSWGQGTLVTVSS
VL: EIVLTQSPGTLSLSPGERATLSCRASQSVSAVYLAWYQQKPGQAPRLLMYDASIRATGIPDRFSGSGSGTDFTLTISRLEPEDFAVYYCQQYRAWPLTFGQGTKVEIK
notes: IgG in SPR
Take B3: in the test with human BCMA, the Kd was determined as 0.02 nM; the koff (commonly a measure of how fast the partners let go of each other) was 0.000155 s⁻¹; the association rate constant (kon) (as a rule, a measure of how fast the partners come together) is 7.86e+06 M⁻¹ s⁻¹.

B4: A02_Rd4_6 nM_C16 expressed in mouse IgG2a (antibody, V domains shown)
VH: B3 VH with P33A, S35N, G52S, G53D, S54F, L58T, P59Y, S104I
VL: B3 VL with A31D, V32L, R93Q, A94T
Regarding B4, the MFI in test [1] is 421; in test [2], 3090; in test [3], 789; in test [4], 1950.

B5: A02_Rd4_6 nM_C01 expressed in mouse IgG2a (antibody, V domains shown)
VH: B3 VH with P33A, S35N, G52T, G53A, L58T, P59Y, D103S, S104L
VL: B3 VL with V32Y, R93E, A94R
Turning to B5, the MFI in test [1] came out at 580; in test [2], 5860; in test [3] it was 1180; in test [4], 2540.

B6: Combo_Rd4_0.6 nM_C29 expressed in mouse IgG2a (antibody, V domains shown)
VH: B3 VH with S104I
VL: B3 VL with A31S, V32S, R93Q, A94S
For B6, the MFI in test [1] was found to be 583; in test [2] it was 6110; in test [3], 1670; in test [4] it was 2570.
